# Test results published in PMC10142772.
# Molecular target: D. officinale MYB5 (DoMYB5), R2R3-MYB transcription factor (Dendrobium officinale)
# Sequence (main, as listed by the source): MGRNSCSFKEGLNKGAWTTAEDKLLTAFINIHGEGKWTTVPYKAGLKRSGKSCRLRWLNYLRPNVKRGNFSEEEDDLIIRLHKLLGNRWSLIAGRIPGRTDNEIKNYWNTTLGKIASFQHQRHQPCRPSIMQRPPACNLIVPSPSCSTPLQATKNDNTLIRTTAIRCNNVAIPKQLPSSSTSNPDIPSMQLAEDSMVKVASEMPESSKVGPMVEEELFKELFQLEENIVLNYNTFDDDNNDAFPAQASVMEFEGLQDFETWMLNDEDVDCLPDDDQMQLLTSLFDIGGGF
substance,measurement,value
"D. officinale bHLH24 (DobHLH24), bHLH transcription factor (natural protein)","dual-luciferase assay in tobacco leaves: activity of the DoCHS promoter on co-expression of DoMYB5 and DobHLH24, against the control group (times higher than the control group)",4.8
same,"dual-luciferase assay in tobacco leaves: activity of the DoDFR promoter on co-expression of DoMYB5 and DobHLH24, against the control group (times higher than the control group)",2.5
